The source of these data is a protein production outcome set (Wang et al. 2014).

The series in a line: label from the status in PepcDB records.

Turning to “MTKIYFAGPLFSQADLRYNAYLVEQIRQLDKTIDLYLPQENAAINDKSAYADSKMIALADTENVLASDLLVALLDGPTIDAGVASEIGVAYAKGIPVVALYTDSRQQGADNHQKLDALNEIAENQFHYLNLYTVGLIKLNGRVVSSEEDLLEEIKQRLS”, the protein production result was “not failed”. On to “MTKKLNPLEDPPTATSSDEDDVETSEAGEASDDSSSSEEDVPIKIRIKSPSATTAAAPPAKSTAVSTAADSDSGSETETDSDSESTNPPNSGSGKTIALNTVNLKKKEDPTSSSATLALPAMKSGTKRPASEAAATTSTKRVKKDEESVKKPGGFQRLWSEEDEILVLQGMIDFKADTGKSPYVDTNAFYDFLKKSISFEVSKNQFMDKIRSLRKKYIGKEGRNEPSFVKAHDKKAFELSKFIWGPKGIALDSNVKSNGVSKKSVAKKKIDSVKQELVFAGGSSTNGKKVEEDGGDDGCDWFDNSSLVRMIASLGVDEYYVKQQWSLVSVESKKIVEEKYKLLQAKELEFVLEKTKFLNEVASMFVEASKNKPLDT”, for which the protein production entry was “failed”. In the case of “MTKLALFVRLEAKPGQEAALADFLASALPLANAESGTTAWFALKFGPSTFGVFDAFADEAGRQAHLNGQIAAALMANAATLLSSPPNIEKVELLAAKLPA” it was “not failed”; in that of “MTKNPRTLYEKIWDAHIVERREDGSALIYIDRHLVHEVTSPQAFEALRQAGRPLRRPDRTLAVPDHNVPTTARVDSEGHLLPIADPQSAKQLAALAKNAPEFGVRYISATDPEQGIVHVVGPEQGFTLPGTTLVCGDSHTAAHGALGALAFGIGTSEVEHVMATQTLILTPAKTMEVRVEGKLSPDVSAKDLILHIIHSLGTAGGTGYAIEYTGEAIRNLSIEERLTVSNMSIEAGARTGLIAADEKTFAYLFGRPMAPKGADWEKAVQWWKSLATDKGAVYDKTVIIKAEDVQPSVTWGTSPEDVVPITGVVPDPASFADPAKQAAARRSLEYMGLEPGQKMEGLAVENVFIGSCTNSRIEDLRAAASVVWGRHVADNVKQALVVPGSGLVKRQAEAEGLDEVFKAAGFEWREPGCSMCLAMNPDKVPAGERCASTSNRNFVGRQGPGARTHLVSPAMAAAAAVTGHLTDLRHLEPVKMGEKA”, “failed”; in that of “MTKQKSKPVEYHPFPQLVLTLDVRRSFTPTFLRQILQTRSFACVILYDSQGVQDDAVFLQKQAQIYAEDIQSNGAAFLISGERRVSERIKADGLHIEGDLKALEYCDYQKKEQKIIGFGNIRNRHCAMVAGEAGVDYLLFGKLGADKKPHAHPRNLQLARWWAEIMETPAIVQAGSDFATFDEVIKTACEFIAIEEVIFAHDNPLMLLKMMQEKCKNSPL”, “failed”. In the case of “MTKRVTCSACDGFGAEGGETGMVSCNSCEGNGFILKNQRSIFGTVQSQMLCQSCGGQGKQALEHHHHHH” it was “failed”; in that of “MTKSELIEQLCSKKPQLSAKQVEDTVKEILEQMATTLEGGDRIEIRGFGSFSLHYREPRLGRNPKTGDKVELDGKFVPHFKPGKELRERVNYS”, “failed”; in that of “MTKSVDTLLIPGPIILSGAVQKALDVPSLGHTSPEFVSIFQRVLKNTRAVFKSAAASKSQPFVLAGSGTLGWDIFASNFILSKAPNKNVLVVSTGTFSDRFADCLRSYGAQVDVVRPLKIGESVPLELITEKLSQNSYGAVTVTHVDTSTAVLSDLKAISQAIKQTSPETFFVVDAVCSIGCEEFEFDEWGVDFALTASQKAIGAPAGLSISLCSSRFMDYALNDSKNGHVHGYFSSLRRWTPIMENYEAGKGAYFATPPVQLINSLDVALKEILEEGLHKRWDLHREMSDWFKDSLVNGLQLTSVSRYPSNMSAHGLTAVYVADPPDVIAFLKSHGVVIAGGIHKDIGPKYIRIGHMGVTACNKNLPYMKNCFDLIKLALQRKK”, “not failed”. The result for “MTLFDGTPFEWAPGRIEVRARRECGASRKSLVVAAGVSYLARMIFSFDAFVTNALFDRSGRAMFALGDGTVRLQTDEGFVTVEAHGGPLGGAVLAAAVHPSGAGIVTGGDDGRVVWSRIEGGEVVATLIAEVKNKWIEHVAASAASGLIAFTVGKEVHVRDAADPAFARTFPHEKTVSGLAFEPKGRRLASATYGGAYLWYARIADQKPTVLKWAGSHIAVEFSPDGKFLISSMQENQLHGWRLSDGKDMRMGGYPSKIKSVAFFDKGNLLATAGASGAVIWPFAGANGPMGKEAAEIGFSRDSMVVRVAGIDPQPVCIAGQDSGKIWAAHMRNGRIETLKAEKGAPISALSVSADGKRLAWGDESGEAGVLEIPDLSGPRQFVGLEHHHHHH” reads “failed”; that for “MTLGTNQVSKTHSFMTVSLIELWERFGYYGMQALIVYFMVQRLGFDDSRANLVWSACAALIYVSPAIGGWVGDKILGTKRTMLLGAGILSVGYALMTVPTENTWFMFSALGVIVVGNGLFKPNAGNLVRKIYEGDDSKIDSAFTIYYMAVNVGSTFSMLLTPWIKDYVNAQYGNEFGWHAAFAVCCVGILVGLGNYALMHKSLANYGSEPDTRPVNKKSLAIVLALAALSVVASAIILEYEDVARVFVYAAGVAVLGIFFHLIRTSEPSERAGLIAALILTVQTVFFFIFYQQMSTSLALFALRNVDWDFQVFGTHLWTWSPAQFQALNPIWIMVLSPVLAWSYSWAGRNNKDFSIAAKFALGFAVVAIGFFIYGFAGQFAVNGKTSSWVMIWGYASYSLGELLVSGLGLAMIARYVPARMGGFMMGAYFVASGISQYLGGVVANFASVPQDLVDPLQTLPVYTNLFNKLGVAAVVCTIIALAVLPLMRRLTESHHAHSSIENNAAASLRDVKAEQ”, “failed”.

Take “MTLIRWNPWQDLNTLQRQLNHLFEEDMLPSTLLERTLTRVPAAELHETAEVIYLKLELPGIDAKDVDLQVTDKAVYISGERKSETKTEDKGVFKSEFQYGKFQRVIPLPARIQNTNVTAEYKDGILNLTLPKAEVEKNKVVKINIESAAGLEHHHHHH”: the protein production entry is on record as “not failed”. As to “MTLKGTAERWGWMSQALHWLIAVLILGLGIGGLIMGKLPKTPNYFWVYTAHKSIGISVLALAVLRLFWRLYAGAPKPIAGTPVWQERVANATHIMLYVLIFTIPLAGWLYDSARGLRTFYWFGLFEMPALVSPNETIRGVALEIHKLSFWALIGLVVLHAGAAFHHHLIQRDATLARMLPRNWFSSKS”, the protein production result is listed as “failed”. The result for “MTLKPTQQRLLLMLGWLHLQCGQPRRAQVLLEALLSVAPERRDGRRALLLALLQQGLGEPAVRLCRQLQEDGEEEPGLWRCLSRAEQLAGRLDAARAAHARALELEARELEHHHHHH” reads “not failed”. The result for “MTLLQQIMWGSLYLGLCFVVEVLLLVWCTLVIVHLSIRLRHLSRAMRTAAVISVSLAFIVLAHTLQVWLWAGVWIWSDVLTDWNEALYFSLVTYTTLGYGDIVLGPGLRIFAAFAAVAGLLAFGLSTAYLVALMSRVFEGRLPR” reads “failed”; that for “MTLMVPFKQVDVFTEKPFMGNPVAVINFLEIDENEVSQEELQAIANWTNLSETTFLFKPSDKKYDYKLRIFTPRSELPFAGHPTIGSCKAFLEFTKNTTATSLVQECKIGAVPITINEGLISFKAPMADYESISSEMIADYEKAIGLKFIKPPALLHTGPEWIVALVEDAETCFNANPNFAMLAHQTKQNDHVGIILAGPKKEAAIKNSYEMRAFAPVINVYEDPVCGSGSVALARYLQEVYKFEKTTDITISEGGRLKRNGLMLASIKKEADNSTSYYIAGHATTVIDGKIKV”, “not failed”. In the case of “MTLSITSNFDAGAIDVVSCERADAIRLRVRGDNRSEFAQWFYFRLTGARGERCVMTFENANDCAYPAGWRDYRAVASYDRVNWFRVPTSYDGQMLTIDHTPEFDSIHYAYFEPYSEERHSEFLGAVQQMPQASVVELGRTVEGRPMSLVVLGTPDEAGAAKKKVWIIARQHPGESMAEWFIEGLVKRLVGWGDWSGDPVARKLYDHATFYIVPNMNPDGSVHGNLRTNAAGANLNREWMEPDAERSPEVLVVRDAIHAIGCDLFFDIHGDEDLPYVFAAGSEMLPGFTEQQRVEQSAFIDSFKRASPDFQDEHGYPPGKYREDAFKLASKYIGHRFGCLSLTLEMPFKDNANLPDEHIGWNGARSASLGAAMLGAILEHVRAFA” it was “not failed”; in that of “MTLSPNLRGALWMLASAVGFTVMTTLIKFLGDDYPAALQTFYRQLAGVLVLLPLIARDWRGAFRTTRPGIVIFRSSAGVLALIMSFYAYQKLPLADANALSFTRTLWLVPLAGLVLREPIGPRRISAALVGFVGVLIMLQPGAGGVEAWLGWPQLCALGAAFLFALTITGMKVMTRDHTPFVLLVYAAVLGLVFAIPPALFVWRWPTWPDLGLLAAMGVIGTLTQGAYIKGMEAGEAAVMAPVDYTRLVFAVIVGFLLFQEVPRTATVVGAVIVVGSTLFISWREHQLAKQAAAEPT”, “failed”; in that of “MTLTEQPQRIAILHSLYLEYFLALGTPPIASAGASTGDAMKALGEWETLKPYAGTAKIIDLGSARDLNLEAILGANPDVIVTFKGQGNLDKIYEQLEQIAPVILVDFSAPWQEQILACAEIVNKEADAQKLIKEIEDSVQSAKEKLSRLEHHHHHH”, “failed”.

Turning to “MTLTLNRQLLTSRQILVAFSGGLDSTVLLHQLVQWRTENPGVALRAIHVHHGLSANADAWVTHCENVCQQWQVPLVVERVQLAQEGLGIEAQARQARYQAFARTLLPGEVLVTAQHLDDQCETFLLALKRGSGPAGLSAMAEVSEFAGTRLIRPLLARTRGELVQWARQYDLRWIEDESNQDDSYDRNFLRLRVVPLLQQRWPHFAEATARSAALCAEQESLLDELLADDLAHCQSPQGTLQIVPMLAMSDARRAAIIRRWLAGQNAPMPSRDALVRIWQEVALAREDASPCLRLGAFEIRRYQSQLWWIKSVTGQSENIVPWQTWLQPLELPAGLGSVQLNAGGDIRPPRADEAVSVRFKAPGLLHIVGRNGGRKLKKIWQELGVPPWLRDTTPLLFYGETLIAAAGVFVTQEGVAEGENGVSFVWQKTLS”, the protein production entry was “not failed”. On to “MTLTQLEIFALVAEMQGFTAAAARLGISQSGVSHAVRELERELGVELLQRRQGRVELTDIGRQLLPRASGMLGLAEAMRQEAADARGLRRGTLRIGSFGPTSSMRLLPALLARYRQQYPGIEVHIDEGPDEQVLQWLLERRVDIAFAVLPDPRFVCCPLVEDQMVAVLPAGHRLADRPRVTLAELCGEPFALSGAGSAELVMRLFQAARLQPNIRYRCGQLLSTLDTVARGDAVAIVAELSLPSRPHAEGYVGKPLQPAVRRQVGLALLDGDQASPAARAFLQIADRLRIEGGLAGLNARENGAA”, for which the protein production entry is reported as “not failed”. In the case of “MTLVDDRLLESKMTKVEQARAWSPRVISKFETLIKSADDHSLYRVNPLAFARDRAIAEAEAIDLFLHAARCGLFDMSWDVLCPQSGMVLDSFGALRTLKTHYVCGLCDVSGDTDLDDFIEVTFSVSPKLRRLPYHDPETLPVEDFHWKLHFGHDGRLPGQDVRFLDVLRGFVRGMTFLPPGTTTVLRADLGPGALSGVNVQTQAAFAVPISGDRGLAPTLLKIDYDGKRFLPAMPAVPPGPIVIEVANRGPVRGSLLVINWPPELVALTTKPTLDFDPYVSGGALLARQTFRQLFRSERVDEKEGLGIRQITFLFTDLKGSTAMYERLGDLNAYALVREHFALVNAAVQQHSGAVVKTIGDAVMAVFSQPSDAISAALHVFEEIDRFNGDHDGPGIILKIGAHCGPSIAVTLNDNLDYFGQTVNVAARVQSLAEAGQICISEALYSAPGVREMLAGHRVVAFDAPLRGVQGDATVYRIMRE” it was “failed”; in that of “MTMETVESQHDGSITASLTESKSAHVQTQTGQNSIPALAQVAAIAETDESAESGGVIDSHKRREILSRRPSYRKILNELSSDVPGVPKIEEERSEEEGTPPSIATMAVPTSIYQTSTGQYIAIAQGGTIQISNPGSDGVQGLQALTMTNSGAPPPGATIVQYAAQSADGTQQFFVPGSQVVVQAATGDMPTYQIRAPTAALPQGVVMAASPGSLHSPQQLAEEATRKRELRLMKNREAAKECRRRKKE”, “not failed”.
